Source: patent US20170267750A1, “Method of Treating Ovarian and Renal Cancer Using Antibodies Against T Cell Immunoglobulin Domain and Mucin Domain 1 (TIM-1) Antigen” (Celldex Therapeutics, Inc., priority 2005, published 2017)

B1: mAb 2.76: fully human IgG4 kappa anti-TIM-1 monoclonal antibody; heavy chain SEQ ID NO: 46, light chain SEQ ID NO: 48 (antibody, listed as Homo Sapiens, V domains shown)
VH: NNNNEQSGGGVVQPGRSLRLSCAASGFTFSSYGMYWVRQAPGKGLEWVAVIWYDGSNKYYADSVKGRFTISRDNSKNTLYLQMNSLRAEDTAVYYCARDFYDSSRYHYGMDVWGQGTTVTVSSA
VL: NNNNTQCPLSLPVTPGEPASISCRSSQSLLDSDDGNTYLDWYLQKPGQSPQLLIYTVSYRASGVPDRFSGSGSGTDFTLKISRVEAEDVGVYYCMQRIEFPITFGQGTRLEIKR
B2: mAb 2.70: fully human IgG4 kappa anti-TIM-1 monoclonal antibody; heavy chain SEQ ID NO: 42, light chain SEQ ID NO: 44 (antibody, listed as Homo Sapiens, V domains shown)
VH: QVQLVESGGGVVQPGRSLRLSCAASGFIFSRYGMHWVRQAPGKGLKWVAVIWYDGSNKLYADSVKGRFTISRDNSKNTLYLQMNSLRAEDTAVYYCARDYYDNSRHHWGFDYWGQGTLVTVSSA
VL: DIVMTQTPLSLPVTPGEPASISCRSSRSLLDSDDGNTYLDWYLQKPGQSPQLLIYTLSYRASGVPDRFSGSGSGTDFTLKISRVEAEDVGVYYCMQRVEFPITFGQGTRLEIKR
B3: mAb 2.56: fully human IgG4 kappa anti-TIM-1 monoclonal antibody; heavy chain SEQ ID NO: 30, light chain SEQ ID NO: 32 (antibody, listed as Homo Sapiens)
heavy: QVQLVESGGGVVQPGRSLRLSCAASGFTFSSYGMHWVRQAPGKGLEWVAVIWYDGSHKYYADSVKGRFTISRDNSKNTLYLQMNSLRAEDTAVYYSARDYYDTSRHHWGFDCWGQGTLVTVSSA
light: EIVMTQTPLSLPVTPGEPASISCRSSQSLLDSEDGNTYLDWYLQKPGQSPQLLIYTLSHRASGVPDRFSGSGSGTDFTLKISRVEAEDVGVYCCMQRVEFPITFGQGTRLEIKR
B4: mAb 1.37: fully human IgG2 kappa anti-TIM-1 monoclonal antibody; heavy chain SEQ ID NO: 6, light chain SEQ ID NO: 8 (antibody, listed as Homo Sapiens, V domains shown)
VH: EVQLVESGGGLVQPGGSLRLSCAASGFTFTNYWMSWVRQAPGKGLEWVANIQQDGSEKYYVDSVRGRFTISRDNAKNSLYLQMNSLRAEDSAVYYCARWDYWGQGTLVTVSSA
VL: DIVMTQTPLSSTVILGQPASISCRSSQSLVHSDGNTYLNWLQQRPGQPPRLLIYMISNRFSGVPDRFSGSGAGTDFTLKISRVEAEDVGVYYCMQATESPQTFGQGTKVEIKR
B5: mAb 2.59: fully human IgG4 kappa anti-TIM-1 monoclonal antibody; heavy chain SEQ ID NO: 34, light chain SEQ ID NO: 36 (antibody, listed as Homo Sapiens, V domains shown)
VH: NNNNNQSGPRLVKPSQTLSLTCTVSGGSISSDGYYWSWIRQHPGKGLEWIGYIYYSGSTFYNPSLKSRVAISVDTSKNQFSLKLSSVTAADTAVYYCARESPHSSNWYSGFDCWGQGTLVTVSSA
VL: NNNNTQSPDFQSVTPKEKVTITCRASQSIGSRLHWYQQKPDQSPKLLIKYASQSFSGVPSRFSGSGSGTDFTLTINSLEAEDAATYYCHQSSNLPFTFGPGTKVDIKR
B6: mAb 2.54: fully human IgG4 kappa anti-TIM-1 monoclonal antibody; heavy chain SEQ ID NO: 26, light chain SEQ ID NO: 28 (antibody, listed as Homo Sapiens, V domains shown)
VH: QVQLEQSGGGVVQPGRSLRLSCAASGFTFTNYGLHWVRQAPGKGLDWVAVIWYDGSHKFYADSVKGRFTISRDNSKNTLFLQMNSLRAEDTAVYYCTRDLDYWGQGTLVTVSSA
VL: ETQLTQSPGTLSLSPGERVTLSCRASQSVSNNYLAWYQQKPGQAPRLLIYGASSRATGIPDRFSGSGSGTDFTLTISRLEPEDCAECYCQQYGSSLPLTFGGGTKVEIKR
B7: mAb 2.61: fully human IgG4 kappa anti-TIM-1 monoclonal antibody; heavy chain SEQ ID NO: 38, light chain SEQ ID NO: 40 (antibody, listed as Homo Sapiens, V domains shown)
VH: QVQLVEAGGGVVQPGRSLRLSCAASGFTFRSYGMHWVRQAPGKGLKWVAVIWYDGSNKYYTDSVKGRFTISRDNSKNTLYLQMNSLRAEDTAVYYCVRDYYDNSRHHWGFDYWGQGTLVTVSSA
VL: DIQMTQSPSSRCASVGDRVTITCRASQGIRNDLAWYQQKPGKAPKRLIYAASSLQSGVPSRFSGSRSGTEFTLTISSLQPEDFAAYYCLQHNSYPPSFGQGTKLEIKR

Columns and labels:
TIM-1 antigen [1] = target: T1, TIM-1 antigen (Homo sapiens, UniProt Q96D42, DEL158-162/L179P); test: Epitope binning (antigen binding competition, Luminex); conditions: Table 9
T1 construct: V5; His; made in house; host or cells: baculovirus expression system (pMelV5His vector / pBlueBac)
T1 sequence (Q96D42 with tags, fused parts or gaps DEL158-162/L179P): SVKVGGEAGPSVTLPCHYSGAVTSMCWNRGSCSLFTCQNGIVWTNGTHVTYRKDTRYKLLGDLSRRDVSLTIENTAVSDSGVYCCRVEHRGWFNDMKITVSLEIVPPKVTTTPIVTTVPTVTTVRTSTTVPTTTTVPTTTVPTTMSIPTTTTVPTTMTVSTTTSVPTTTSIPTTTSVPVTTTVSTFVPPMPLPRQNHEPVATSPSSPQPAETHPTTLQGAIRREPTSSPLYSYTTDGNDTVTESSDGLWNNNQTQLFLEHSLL
Procedure: Certain antibodies, described herein were “binned” in accordance with the protocol described in U.S. Patent Application Publication No. 20030157730, published on Aug. 21, 2003, entitled “Antibody Categorization Based on Binding Characteristics.”
MxhIgG conjugated beads were prepared for coupling to primary antibody. The volume of supernatant needed was calculated using the following formula: (n+10)×50 μL (where n=total number of samples on plate). Where the concentration was known, 0.5 μg/mL was used. Bead stock was gently vortexed, then diluted in supernatant to a concentration of 2500 of each bead per well or 0.5×10^5/mL and incubated on a shaker in the dark at room temperature overnight, or 2 hours if at a known concentration of 0.5 μg/mL. Following aspiration, 50 μL of each bead was added to each well of a filter plate, then washed once by adding 100 μL/well wash buffer and aspirating. Antigen and controls were added to the filter plate 50 μL/well then covered and allowed to incubate in the dark for 1 hour on shaker. Following a wash step, a secondary unknown antibody was added at 50 μL/well using the same dilution (or concentration if known) as used for the primary antibody. The plates were then incubated in the dark for 2 hours at room temperature on shaker followed by a wash step. Next, 50 μL/well biotinylated mxhIgG diluted 1:500 was added and allowed to incubate in the dark for 1 hour on shaker at room temperature. Following a wash step, 50 μL/well Streptavidin-PE was added at 1:1000 and allowed to incubate in the dark for 15 minutes on shaker at room temperature. Following a wash step, each well was resuspended in 80 μL blocking buffer and read using a Luminex system.

TIM-1 antigen [2] = target: T1, TIM-1 antigen; test: BiaCore affinity determination of anti-TIM-1 mAb; type: binding; conditions: 25° C.; mAb captured on chip; TIM-1 antigen injected at 292 nM
Procedure: BiaCore® analysis was used to determine binding affinity of anti-TIM-1 antibody to TIM-1 antigen. The analysis was performed at 25° C. using a BiaCore® 2000 biosensor equipped with a research-grade CMS sensor chip. A high-density goat […] antibody surface over a CMS BiaCore® chip was prepared using routine amine coupling. Antibody supernatants were diluted to ˜5 μg/mL in HBS-P running buffer containing 100 μg/mL BSA and 10 mg/mL carboxymethyldextran. The antibodies were then captured individually on a separate surface using a 2 minute contact time, and a 5 minute wash for stabilization of antibody baseline.
TIM-1 antigen was injected at 292 nM over each surface for 75 seconds, followed by a 3-minute dissociation. Double-referenced binding data were obtained by subtracting the signal from a control flow cell and subtracting the baseline drift of a buffer inject just prior to the TIM-1 injection. TIM-1 binding data for each mAb were normalized for the amount of mAb captured on each surface. The normalized, drift-corrected responses were also measured.

Row | Molecule | Bin (TIM-1 antigen [1]) | Kd (TIM-1 antigen [2])
1 | B1 | 4 | 
2 | B2 | 6 | 
3 | B3 | 5 | 1.1 nM
4 | B4 | 4 | 
5 | B5 | 1 | 
6 | B6 | 7 | 3.35 nM
7 | B7 | 4 | 
